Target: T1, Talin F2F3 (206-405, C336S) (UniProt Q9Y490 206-405, C336S)
T1 construct: Talin (head 1-433, rod 434-2541), F2 and F3 lobes of the FERM domain, residues 206-405; gene codon optimised and synthesised; the purification (beads before and after cleavage, elution as a 25 kDa protein) describes the cleaved protein; also called Talin206-405; Talin F2F3 head
Assay: NMR titration; 1H-15N HSQC; 90 μM 15N-labelled FAT incubated with Talin at molar ratios of 1:0.5, 1:1 and 1:2; 25 °C
Settings: both partners purified

T1 sequence (Q9Y490 206-405 C336S): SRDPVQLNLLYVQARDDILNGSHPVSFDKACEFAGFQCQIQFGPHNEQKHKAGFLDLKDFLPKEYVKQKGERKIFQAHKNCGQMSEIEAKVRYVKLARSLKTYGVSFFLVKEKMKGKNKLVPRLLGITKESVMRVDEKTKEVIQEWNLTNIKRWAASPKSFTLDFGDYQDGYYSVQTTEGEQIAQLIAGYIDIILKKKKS

Kd: > 100 µM
B1: FAT domain of human FAK (892-1052) (domain or fragment, UniProt Q05397 892-1052, looked up)
chain: SSPADSYNEGVKLQPQEISPPPTANLDRSNDKVYENVTGLVKAVIEMSSKIQPAPPEEYVPMVKEVGLALRTLLATVDETIPLLPASTHREIEMAQKLLNSDLGELINKMKLAQQYVMTSLQQEYKKQMLTAAHALAVDAKNLLDVIDQARLKMLGQTRPH
notes: focal adhesion kinase (FAK), human, residues 892-1052: FAT domain with N-terminal residues preceding the four-helix bundle (922-1049); Expressed as GST fusion from pGex-6P2 and released from the beads with 3C protease; 15N-labelled (M9 medium with 15N-NH4Cl) for the NMR experiments; also called FAT892-1052; FAK FAT; source: E. coli BL21, purified (Glutathione Sepharose 4B, 3C protease, Superdex …)

— paper doi:10.1101/2022.04.06.487260, “The purified recombinant FAT domain of the Focal Adhesion Kinase does not bind directly to recombinant Talin or MBD2 in vitro” (bioRxiv, 2022)
